# ± gives the standard deviation of the averaged measurements.
# Test system: ATP
# Experiment: switch fluorescence ratio, 500 uM ATP over buffer (Cy3 cluster intensity, sum of 5 cycles each) (fold (ratio)); higher = stronger signal-on switching upon ATP binding; sequences stand for … in TCGTCGGCAGCGTCAGATGTGTATAAGAGACAGTTTTTTTTTTTTTTTTTTTTTTTTT…TC
# Details: aptamer strand: ATP DNA aptamer (quencher-CACCTGGGGGAGTATTGCGGAGGAAGG + anchor), 100 nM annealed; ATP concentration: 500 uM
# Summary of the method: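 After annealing to 100 nM quencher-labelled ATP aptamer, Cy3-labelled switching-strand clusters on a modified Illumina MiSeq flow-cell were imaged in selection buffer. A second image followed after 15 min with 500 uM ATP at 22 °C, and five such buffer/ATP cycles were done, each separated by NaOH stripping and re-annealing. The fluorescence ratio, averaged per switch-domain sequence, is summed target-cycle over summed buffer-cycle Cy3 intensity per cluster, with clusters outside 100-1000 RFU excluded.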
# 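Further: ATP exposure 15 min at 22 °C before imaging.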
row,Sequence,switch fluorescence ratio
1,TGTAGCAGCG,1.1 ± 0.16
2,TTGTATGGAC,1.019 ± 0.0076
3,GAGATGCGAG,0.963 ± 0.021
4,AATCGGCTCA,0.98074 ± 0.00017
5,TTAGATGTCC,0.9822 ± 0.0075
6,TATACTTTAT,1.02 ± 0.037
7,TGGCTTAGGA,0.979 ± 0.012
8,ATGCAGCATG,1.021 ± 0.0038
9,AGTAAGGCTC,1.14 ± 0.061
10,ACGGTTCTTT,1.01 ± 0.03
11,TTTAGGTCAT,1.01 ± 0.083
12,ATCAGTAAAA,1.01 ± 0.035
13,ATTTTTGAAC,0.99 ± 0.019
14,AAGGTTCGGG,0.994 ± 0.018
15,GGGGGGATCG,0.9791 ± 0.008
16,CCAAAAGGCA,1.0416 ± 0.00044
17,CTCATAGACA,1.03 ± 0.08
18,GCAAAAATGT,1 ± 0.029
19,GTGGGATGGG,0.973 ± 0.019
20,GTTTGCCTGT,0.9845 ± 0.0094
21,ATAAGGTTGT,0.977 ± 0.025
22,GGCCCGGGTT,0.994 ± 0.019
23,TTTTCGAGAG,1 ± 0.026
24,GCGATGCCTC,1.09 ± 0.043
25,GACTTAATGG,0.962 ± 0.051

row,Sequence,switch fluorescence ratio
1,TCGGGGGTGG,0.988 ± 0.014
2,CATCGGGGGT,1.29 ± 0.67
3,CTTGTCACCA,0.988 ± 0.022
4,TGGGGTAGC,0.9979 ± 0.0088
5,GACTGTAGGA,1.03 ± 0.0051
6,GGATAGGTAC,1.05 ± 0.04
7,TATTACACGT,1.021 ± 0.0046
8,GCTTCTTAGT,1.028 ± 0.0053
9,AGTAATTTTG,1.01 ± 0.065
10,CAATGTTGAT,1.01 ± 0.026
11,GTTGGTAGGG,0.9979 ± 0.0099
12,CGGGGGAGCT,1.02 ± 0.029
13,TTCAGTTCGG,0.9942 ± 0.0016
14,ACTCTTTGAT,1.02 ± 0.0093
15,GGGTTCCTAG,1.01 ± 0.041
16,GATATTGTCA,1.04 ± 0.069
17,TTGGACTAAG,0.99 ± 0.044
18,CGTTGAGATC,1.06 ± 0.059
19,TAAAGGCTTG,0.976 ± 0.034
20,GGTCATGCGG,1.01 ± 0.021
21,ACAAAGATGA,0.973 ± 0.015
22,GATTTAATTT,1.001 ± 0.0063
23,TTTTGAAAAA,1 ± 0.061
24,TTTAGGATTT,0.985 ± 0.027
25,TGAGAAGTTG,1.01 ± 0.066

row,Sequence,switch fluorescence ratio
1,AAAGTTAGGG,1.01 ± 0.038
2,GAAATTAGTT,0.991 ± 0.018
3,TGAAATAATT,0.9791 ± 0.0017
4,GTTTTTAATT,0.95322 ± 0.0005
5,CCGTATTGGT,1.03 ± 0.039
6,AGGTGATACG,1.06 ± 0.054
7,CGTCGACGGG,1.02 ± 0.054
8,TTTAGTTGTT,1.01 ± 0.03
9,AGATTGGGTA,1.01 ± 0.024
10,CGTTGAGGAC,1.024 ± 0.0053
11,AATCGGGTAG,1 ± 0.014
12,TCACTTAGAA,1.04 ± 0.016
13,GACGCACTGG,1.853 ± 0.0015
14,AACTGAGACT,1.02 ± 0.032
15,GATCGCTTGG,1.04 ± 0.036
16,CATAGTAGAA,0.978 ± 0.034
17,CTGAAGGAGG,0.971 ± 0.037
18,AGACGAAAAG,1.03 ± 0.038
19,TGGTTACCGA,1 ± 0.014
20,TTAGGGCTTT,1.01 ± 0.035
21,GGGATTGCTA,1.03 ± 0.012
22,GCGGGCTAAC,1.17 ± 0.24
23,GGTAACATTT,1.061 ± 0.0053
24,ATGATTAGCT,1.0032 ± 0.00021
25,TTCTGGCTTT,1.16 ± 0.25

row,Sequence,switch fluorescence ratio
1,CAGGGGGCCG,1.01 ± 0.078
2,TTACGGTAAT,1.143 ± 0.0043
3,TCGGGGTTTA,0.994 ± 0.059
4,ATGCGTGGGG,1.02 ± 0.029
5,AATTGGTGCA,0.96 ± 0.011
6,ACTAGGTTAT,1.16 ± 0.15
7,AGTGGGTTTT,0.988 ± 0.043
8,GTAAATAGTC,1.03 ± 0.065
9,CAGGGGTCTG,0.997 ± 0.038
10,GGGGGGAGGA,1.01 ± 0.056
11,ATGGTGCTGA,1.01 ± 0.014
12,TTTGATCACG,1.02 ± 0.031
13,CTGTGCAGCG,1.01 ± 0.019
14,TTTGGCTTAT,0.989 ± 0.022
15,AGGACAGCGC,1.024 ± 0.008
16,TTTATGTCGC,1.01 ± 0.054
17,TGCCGCAGGT,1.01 ± 0.043
18,CGGGGATGGC,0.979 ± 0.011
19,TAATGGTTCG,0.9962 ± 0.0025
20,AGGGTAGGGT,1.01 ± 0.033
21,AGTTCTAGGT,0.986 ± 0.018
22,TCGGCCATCG,1 ± 0.016
23,TTAGAGGGGG,1.01 ± 0.032
24,TATGGCGGGT,1 ± 0.014
25,ATTTGGGAAG,1.01 ± 0.021

row,Sequence,switch fluorescence ratio
1,AGACCAATTC,1.095 ± 0.0037
2,GGTGTGTGCT,0.989 ± 0.049
3,GGGGGGGTG,1.04 ± 0.013
4,CGGGTTGCAG,0.97 ± 0.019
5,TCTATTCGGG,0.9484 ± 0.0029
6,CAATGAGGTG,1.08 ± 0.036
7,CCCGCTAAGG,1.19 ± 0.028
8,TATTCGCATC,2.12 ± 0.41
9,GCCATGTCGA,0.9921 ± 0.0061
10,TTTATGTCCA,0.9923 ± 0.0021
11,GGGGTTGTAG,0.993 ± 0.047
12,ATTCATCGTA,1.0012 ± 0.0006
13,AATGGAGGGG,0.978 ± 0.019
14,ATGGGTGAAG,0.9848 ± 0.0096
15,TTTTCGGCTG,0.943 ± 0.11
16,TAAGTACGTG,1.18 ± 0.035
17,GCTGGACTTG,0.998 ± 0.053
18,CGAAGGTTTG,0.945 ± 0.058
19,AGGTGCAATT,1.47 ± 0.54
20,TTTTCATTCT,1.01 ± 0.013
21,ATATATGCGG,1.11 ± 0.12
22,ACCGGCGAGC,1.01 ± 0.016
23,ATATATACTG,1.05 ± 0.071
24,CGACCATTAA,1.264 ± 0.0043
25,ATGTTTTTTT,0.9915 ± 0.0073

row,Sequence,switch fluorescence ratio
1,AGTTGGTAGC,1.01 ± 0.011
2,GGGTACGGAT,1.04 ± 0.016
3,AGAGGAGGCA,0.9727 ± 0.0085
4,TTTGAGTTTT,0.989 ± 0.034
5,TGTGGGGTGT,1.039 ± 0.0096
6,TGTTTATTTT,0.982 ± 0.025
7,CTAGGGCTGA,0.972 ± 0.013
8,GGGTCGCGTG,1.02 ± 0.033
9,GCTTTTTAGT,1.006 ± 0.0021
10,GGTGCTAGTG,0.999 ± 0.015
11,AGGGACGAAT,1.25 ± 0.092
12,CATAAGATGT,1 ± 0.021
13,GAAAGGGGCC,1.01 ± 0.066
14,CCGTAACGGA,0.972 ± 0.012
15,TGTGGCTAGG,1.02 ± 0.029
16,GGGGCATGGA,0.95 ± 0.018
17,AGGGTCACTC,0.9857 ± 0.0043
18,ACTATGTCTT,1.005 ± 0.0049
19,GGGACTGGGA,1 ± 0.031
20,TTTAAATGTT,0.991 ± 0.031
21,TAAATGGGGA,0.995 ± 0.025
22,AGCGAAATCA,1 ± 0.078
23,GTTGGTAGCC,0.978 ± 0.022
24,TTGGGGCCCG,1.01 ± 0.082
25,TTTACTTAGG,1.04 ± 0.023

row,Sequence,switch fluorescence ratio
1,ACGGGACGGA,1.034 ± 0.0065
2,GGCAATAGGG,1.14 ± 0.056
3,TGTTGGGAAC,1.07 ± 0.12
4,GCAGCTAGTA,1.044 ± 0.0045
5,TGTGTCACCT,1.09 ± 0.025
6,CGGCGGGTCT,0.98 ± 0.052
7,GTGTGGGGGG,1.02 ± 0.075
8,GCGTTGGAGC,0.9949 ± 0.0072
9,AAATTTTTGT,1.001 ± 0.0065
10,CGTTAGTAAA,0.9862 ± 0.0035
11,CTCAATCTTG,0.971 ± 0.043
12,TTGCGAGGGC,1 ± 0.028
13,AATCTCATAA,0.986 ± 0.034
14,GGGTACGGTA,1.05 ± 0.029
15,TTATGGGTCT,1 ± 0.036
16,TTAATTTTCT,1.04 ± 0.033
17,TTTGTGAGTA,1 ± 0.023
18,ATCAATATGT,0.996 ± 0.029
19,GGGGAGGCCC,0.998 ± 0.031
20,TAGTTACCCG,0.979 ± 0.045
21,GATGTTAAGA,0.998 ± 0.046
22,TAAGTGGGGA,0.959 ± 0.032
23,CTGGGGGTTC,1.01 ± 0.018
24,GTCAGGAATT,0.9981 ± 0.0062
25,CCATCGCCCT,1.17 ± 0.061

row,Sequence,switch fluorescence ratio
1,TAGATCGTTG,0.977 ± 0.04
2,CACGTATCTC,1.2 ± 0.05
3,TTTTAATCTC,0.979 ± 0.024
4,TGTCATAATG,0.97 ± 0.015
5,ATTAATTATC,0.993 ± 0.031
6,AGGGGGGCAC,0.984 ± 0.025
7,GTAGCTCCTG,0.995 ± 0.056
8,AGCCCGCGCA,1.03 ± 0.028
9,TTCTCGTCTT,1.04 ± 0.036
10,CGTGAGATTA,0.9846 ± 0.0009
11,TTCATTTGAG,0.995 ± 0.021
12,TATCTGGCTT,1.019 ± 0.0013
13,CTTTTGGTTT,0.975 ± 0.032
14,TTTTGTGATT,0.984 ± 0.013
15,ATTATGGGAT,0.996 ± 0.029
16,GACGTTTTGC,1.073 ± 0.0083
17,CAAAAGATTC,1.045 ± 0.0095
18,GGGGGGCGGG,1.03 ± 0.051
19,CGACGTTAGT,0.995 ± 0.025
20,TATAGGGCGG,1.13 ± 0.21
21,AGTGCGATGT,0.988 ± 0.016
22,TGTGGTGCAG,1 ± 0.042
23,TACGGCTGGT,1.008 ± 0.0031
24,CTTAAATTCG,0.987 ± 0.018
25,TAAAGAACGT,0.942 ± 0.015
